We go through one molecule from patent publication US20260152555A1 (HUAHUI HEALTH, published 2026).

In one test the target is T1, E94A (human, UniProt Q6DKI7).
T1 construct: extracellular domain, amino acids 42-172; alanine-scanning variant; also called hCD112R-ECD-mFc E94A variant
T1 sequence (Fc fusion chain, looked up): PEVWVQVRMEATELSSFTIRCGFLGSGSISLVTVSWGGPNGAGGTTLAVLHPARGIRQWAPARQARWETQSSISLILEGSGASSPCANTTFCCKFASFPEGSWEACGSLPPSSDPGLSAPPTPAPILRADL
In words: SPR (Biacore T200), multi-cycle; H733-hIgG4 captured on anti-hFc Ab, hCD112R-ECD-mFc variant injected (3.125-100 nM); 1:1 Langmuir [Cont') B]. On the procedure: (§1) Kinetic analyses of the bindings of WT or mutated hCD112R-ECD-mFc proteins to H733 and hCD112-ECD were performed on a Biacore T200 instrument (Biacore, GE Healthcare). For the single-cycle SPR analysis, anti-mFc Ab (Thermo Fisher) was covalently attached to surfaces of a CM5 sensor chip using an amine coupling kit (GE Healthcare). WT or mutated hCD112R-ECD mFc fusion proteins were captured on the chip and H733-hIgG4 or hCD112-ECD-hFc were then injected. For the multi-cycle SPR analysis, anti-hFc Ab (Thermo Fisher) was covalently attached to surfaces of a CM5 sensor chip using an amine coupling kit (GE Healthcare). H733-hIgG4 or hCD112-ECD-hFc protein was captured on the chip and 2-fold serially diluted WT or mutated hCD112R-ECD-mFc proteins (3.125-100 nM) were then injected. Binding kinetics were evaluated using a 1:1 Langmuir binding model. The association rates (ka), dissociation rates (kd), and affinity constants (KD) were calculated using Biacore T200 evaluation software.
(In general: In SPR one partner is held on a chip, and binding of the other changes the refractive index at the surface.)

For a further test, the target named is T2, K135A (human, UniProt Q6DKI7).
T2 construct: extracellular domain, amino acids 42-172; alanine-scanning variant; also called hCD112R-ECD-mFc K135A variant
T2 sequence (Fc fusion chain, looked up): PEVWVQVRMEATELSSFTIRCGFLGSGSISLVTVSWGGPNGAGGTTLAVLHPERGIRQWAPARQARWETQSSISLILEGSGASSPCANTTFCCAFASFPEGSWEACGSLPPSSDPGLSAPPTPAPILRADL
Described as above. The method, then:
as §1

In another test the target is T3, H92A (human, UniProt Q6DKI7).
T3 construct: extracellular domain, amino acids 42-172; alanine-scanning variant; also called hCD112R-ECD-mFc H92A variant
T3 sequence (Fc fusion chain, looked up): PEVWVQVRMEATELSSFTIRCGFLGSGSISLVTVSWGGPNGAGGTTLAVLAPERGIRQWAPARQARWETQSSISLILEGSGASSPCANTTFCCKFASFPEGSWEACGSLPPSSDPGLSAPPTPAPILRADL
The description is as above. On the procedure:
as §1

The target in a further test is T4, L72A (human, UniProt Q6DKI7).
T4 construct: extracellular domain, amino acids 42-172; alanine-scanning variant; also called hCD112R-ECD-mFc L72A variant
T4 sequence (Fc fusion chain, looked up): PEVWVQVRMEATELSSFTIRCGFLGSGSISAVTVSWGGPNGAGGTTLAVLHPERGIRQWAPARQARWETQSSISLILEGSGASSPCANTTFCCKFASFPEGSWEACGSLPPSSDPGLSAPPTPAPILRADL
The description is as above. On the procedure:
as §1

A further test has as its target T5, F139A (human, UniProt Q6DKI7).
T5 construct: extracellular domain, amino acids 42-172; alanine-scanning variant; also called hCD112R-ECD-mFc F139A variant
T5 sequence (Fc fusion chain, looked up): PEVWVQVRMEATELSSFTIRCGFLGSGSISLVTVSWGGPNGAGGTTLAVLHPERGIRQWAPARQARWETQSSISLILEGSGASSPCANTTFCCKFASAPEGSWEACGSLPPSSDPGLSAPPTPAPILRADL
The test is described as above. The method, then: as §1

The next test has as its target T6, hCD112R-ECD-His6-Avi (human, UniProt Q6DKI7 42-172, biotinylated (Avi tag) in the ELISA assays).
T6 construct: range 42-172; Expressed in HEK 293F cells; Analyte in SPR, and captured on streptavidin in ELISA; also called biotinylated hCD112R-ECD-His6-Avi; not shown: C-terminal His6-Avi tag
T6 sequence (looked up): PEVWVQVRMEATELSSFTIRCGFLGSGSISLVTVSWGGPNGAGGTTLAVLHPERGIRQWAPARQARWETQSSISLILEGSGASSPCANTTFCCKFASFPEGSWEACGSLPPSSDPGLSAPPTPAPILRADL
Description: SPR (Biacore T200), multi-cycle, H733 captured by anti-hFc Ab, hCD112R-ECD-His6-Avi as analyte, 1:1 Langmuir model. On the procedure:
Anti-hFc Ab (Thermo Fisher) was covalently attached to surfaces of a CM5 sensor chip using an amine coupling kit (GE Healthcare). Abs at optimal concentrations were captured on the chip and the analytes (hCD112R-ECD-His₆-Avi) at single concentration or serial dilutions were then injected. Binding kinetics were evaluated using a 1:1 Langmuir binding model. The association rates (ka), dissociation rates (kd), and affinity constants (KD) were calculated using Biacore T200 evaluation software.

The target of a further test is T7, hCD112R-ECD-mFc WT (human; mouse, UniProt Q6DKI7 42-172).
T7 construct: range 42-172; also called WT hCD112R; wildtype (WT) hCD112R protein; not shown: Fc domain of mouse IgG2a
T7 sequence (looked up): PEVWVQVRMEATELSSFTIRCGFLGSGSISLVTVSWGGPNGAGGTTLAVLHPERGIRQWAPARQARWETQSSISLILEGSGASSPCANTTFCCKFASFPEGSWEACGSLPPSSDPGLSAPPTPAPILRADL
Description: SPR (Biacore T200), multi-cycle; H733-hIgG4 captured on anti-hFc Ab, hCD112R-ECD-mFc WT injected (3.125-100 nM); 1:1 Langmuir [Cont') B]. The method, then:
as §1

B1: H733 (humanized Ab composed of 733-VH-humanV2 and 733-VL-human-C91S) (antibody, human IgG4, V domains shown)
VH: QVQLVQSGAEVKKPGASVKVSCKASGYTFTNYLIEWVRQAPGQGLEWMGVINPGHGFTNYAQKFQGRVTMTRDTSTSTVYMELSSLRSEDTAVYYCARGEWDWYFDVWGQGTTVTVSS
VL: DIQLTQSPSFLSASVGDRVTITCKASQNVGTAVAWYQQKPGKAPKLLIYSTSNRYTGVPSRFSGSGSGTEFTLTISSLQPEDFATYYCQQSSSYPFTFGGGTKVEIK
notes: also called H733-hIgG4; H733 mAb (hIgG4 form)
Regarding B1, the Kd in the test with E94A turned out to be 0.533 nM; in the test with K135A it was 0.847 nM; with H92A it was 0.366 nM; with L72A it was 0.469 nM; with F139A it was 0.165 nM; in the test with hCD112R-ECD-His6-Avi it was 0.65 nM. The Kd with hCD112R-ECD-mFc WT amounted to 0.333 nM. The koff with E94A is 0.000573 s⁻¹; with K135A, 0.000412 s⁻¹; with H92A it was 0.000373 s⁻¹; in the test with L72A, 0.000394 s⁻¹; with F139A, 0.000232 s⁻¹; in the test with hCD112R-ECD-mFc WT, 0.000364 s⁻¹. Also, the kon with E94A turned out to be 1.08e+06 M⁻¹ s⁻¹; with K135A it was 487000 M⁻¹ s⁻¹; in the test with H92A, 1.02e+06 M⁻¹ s⁻¹; with L72A, 840000 M⁻¹ s⁻¹; with F139A it was 1.4e+06 M⁻¹ s⁻¹; in the test with hCD112R-ECD-mFc WT it was 1.1e+06 M⁻¹ s⁻¹.

The term Kd denotes the equilibrium constant for the complex coming apart. A lower Kd goes with tighter binding. In general, koff refers to the rate constant with which the complex falls apart. As usually defined, the kon is the second-order rate constant of association.
